Patent US20220042033A1, “COMPOSITION AND METHOD FOR CONFERRING AND/OR ENHANCING TOLERANCE AGAINST HERBICIDES BY USING VARIANTS OF PPO” (FarmHannong Co., Ltd., priority 2017, published 2022)

tested on: ApPPO1; test: PPO enzyme activity of purified MBP-fused ApPPO1 wild type and variants; type: biochemical, Auxenochlorella protothecoides; conditions: PPO enzyme activity relative to ApPPO1 wild type; MBP-fused protein
Protocol: Thus, PPO proteins of wild type and variants were expressed as fused to MBP and were used for experiments.
The following process for purification of PPO protein was performed in a 4° C. cold room. […] The column was washed with 3 column volumes of buffer and the presence of protein in the washing solution was examined. When the protein was no longer detected, the washing procedure was terminated. Then, the MBP-PPO protein was eluted with approximately 2 column volumes of buffer containing 20 mM maltose. The protein concentration of each eluent was determined and the elution was stopped when the protein was no longer detected. Ten microliter of each fraction was investigated for protein quantification and SDS-PAGE analysis. The highly pure fractions of PPO protein variants were used for the enzyme assay.
Since protoporphyrinogen IX, a substrate of PPO protein, was not commercially available, it was chemically synthesized in the laboratory. Overall process was performed in dark under nitrogen stream. […] of protoporphyrin IX was dissolved in 20 ml of 20% (v/v) EtOH, and stirred under dark condition for 30 minutes. The obtained protoporphyrin IX solution was put into a 15 ml screw tube in an amount of 800 μl, and flushed with nitrogen gas for 5 minutes. To this, 1.5 g of sodium amalgam was added and vigorously shaken for 2 minutes. The lid was opened to exhaust hydrogen gas in the tube. Thereafter, the lid was closed and incubated for 3 minutes. The protoporphyrinogen IX solution was filtered using syringe and cellulose membrane filter. To 600 μl of the obtained protoporphyrinogen IX solution, approximately 300 μl of 2M MOPS [3-(N-morpholino) propanesulfonic acid] was added to adjust pH to 8.0. To determine the enzyme activity of PPO protein, a reaction mixture was prepared with the following composition (based on 10 ml): 50 mM Tris-Cl (pH 8.0); 50 mM NaCl; 0.04% (v/v) Tween 20; 40 mM glucose (0.072 g); 5 units glucose oxidase (16.6 mg); and 10 units catalase (1 μl).
Hundred and eighty microliters of a reaction mixture […] were placed in 96 well plates and 20 μl of purified PPO proteins were added. After 50 μl of the mineral oil was layered, the reaction was initiated by adding the substrate, protoporphyrinogen IX solution, to a final concentration of 50 μM. The reaction proceeded at room temperature for 30 min and the fluorescence of protoporphyrin IX was measured using Microplate reader (Sense, Hidex) (excitation: 405 nm; emission: 633 nm). To calculate the PPO enzyme activity, the protoporphyrinogen IX solution was kept open in the air overnight to oxidize the solution. To this, 2.7 N HCl was added, and the absorbance at 408 nm was measured. A standard curve was generated using standard protoporphyrin IX, and PPO activity was measured by calibration of protoporphyrin IX using the standard curve of protoporphyrin IX.
Activities of variants were presented relatively compared to that of wild type.

Molecule	Activity (%)
F209A: ApPPO1 (SEQ ID NO: 1) variant (protein, Synthetic (Protoporphyrinogen IX oxidase (ApPPO1) of Auxenochlorella protothecoides)) MPFTHLKPLNRLLGSPRARHPHVAPQAVSVTNTSTTRPGGRSSAPGIPGDAEYDVVIVGAGISGLTTAQALAKQYSDAVPRLLVTEARDCVGGNIITRRDGGYQWEEGPNSFQPSDAVLRAAVDAGVADRLVLGDPKAPRYVYWGGRLRATPSGPDVLTFDLLSLWGKLRAGLGAAGFKAPLPEREESVKEFVTRNLGEEVFQRLIEPACSGVYAGDPAKLSMKAAFGKVYDLEKGGGSIVGGVLALMKARKQKPPEPRPADLPPKPKGQTVGSFDKGLVTLPSAIAEELGDRVVTGWKLESIDRSGDRFQLTYDTPQGRKKVSARSVALTVPAYTAASLLESRFPKLGKALSSIYYPPVASVALSYPETAILPERLGSDGHLAGFGQLHPRTQGVTTLGTIYASSLFPGRVPEGKVLLLSYFGGATNTRVATMPHGEIVSQVDKDLRKMLIRSDAESPHTVNVTVWPRAIPQFNVGHTDLIQEAKDDLASQGWQGLHLGGNYVAGVALGKCMEAGYKQAAELASHVKSLAT	78
V360M: ApPPO1 (SEQ ID NO: 1) variant (protein, Synthetic (Protoporphyrinogen IX oxidase (ApPPO1) of Auxenochlorella protothecoides)) MPFTHLKPLNRLLGSPRARHPHVAPQAVSVTNTSTTRPGGRSSAPGIPGDAEYDVVIVGAGISGLTTAQALAKQYSDAVPRLLVTEARDCVGGNIITRRDGGYQWEEGPNSFQPSDAVLRAAVDAGVADRLVLGDPKAPRYVYWGGRLRATPSGPDVLTFDLLSLWGKLRAGLGAAGFKAPLPEREESVKEFVTRNLGEEVFQRLIEPFCSGVYAGDPAKLSMKAAFGKVYDLEKGGGSIVGGVLALMKARKQKPPEPRPADLPPKPKGQTVGSFDKGLVTLPSAIAEELGDRVVTGWKLESIDRSGDRFQLTYDTPQGRKKVSARSVALTVPAYTAASLLESRFPKLGKALSSIYYPPMASVALSYPETAILPERLGSDGHLAGFGQLHPRTQGVTTLGTIYASSLFPGRVPEGKVLLLSYFGGATNTRVATMPHGEIVSQVDKDLRKMLIRSDAESPHTVNVTVWPRAIPQFNVGHTDLIQEAKDDLASQGWQGLHLGGNYVAGVALGKCMEAGYKQAAELASHVKSLAT	59
V213C: ApPPO1 (SEQ ID NO: 1) variant (protein, Synthetic (Protoporphyrinogen IX oxidase (ApPPO1) of Auxenochlorella protothecoides)) MPFTHLKPLNRLLGSPRARHPHVAPQAVSVTNTSTTRPGGRSSAPGIPGDAEYDVVIVGAGISGLTTAQALAKQYSDAVPRLLVTEARDCVGGNIITRRDGGYQWEEGPNSFQPSDAVLRAAVDAGVADRLVLGDPKAPRYVYWGGRLRATPSGPDVLTFDLLSLWGKLRAGLGAAGFKAPLPEREESVKEFVTRNLGEEVFQRLIEPFCSGCYAGDPAKLSMKAAFGKVYDLEKGGGSIVGGVLALMKARKQKPPEPRPADLPPKPKGQTVGSFDKGLVTLPSAIAEELGDRVVTGWKLESIDRSGDRFQLTYDTPQGRKKVSARSVALTVPAYTAASLLESRFPKLGKALSSIYYPPVASVALSYPETAILPERLGSDGHLAGFGQLHPRTQGVTTLGTIYASSLFPGRVPEGKVLLLSYFGGATNTRVATMPHGEIVSQVDKDLRKMLIRSDAESPHTVNVTVWPRAIPQFNVGHTDLIQEAKDDLASQGWQGLHLGGNYVAGVALGKCMEAGYKQAAELASHVKSLAT	85
L389T: ApPPO1 (SEQ ID NO: 1) variant (protein, Synthetic (Protoporphyrinogen IX oxidase (ApPPO1) of Auxenochlorella protothecoides)) MPFTHLKPLNRLLGSPRARHPHVAPQAVSVTNTSTTRPGGRSSAPGIPGDAEYDVVIVGAGISGLTTAQALAKQYSDAVPRLLVTEARDCVGGNIITRRDGGYQWEEGPNSFQPSDAVLRAAVDAGVADRLVLGDPKAPRYVYWGGRLRATPSGPDVLTFDLLSLWGKLRAGLGAAGFKAPLPEREESVKEFVTRNLGEEVFQRLIEPFCSGVYAGDPAKLSMKAAFGKVYDLEKGGGSIVGGVLALMKARKQKPPEPRPADLPPKPKGQTVGSFDKGLVTLPSAIAEELGDRVVTGWKLESIDRSGDRFQLTYDTPQGRKKVSARSVALTVPAYTAASLLESRFPKLGKALSSIYYPPVASVALSYPETAILPERLGSDGHLAGFGQTHPRTQGVTTLGTIYASSLFPGRVPEGKVLLLSYFGGATNTRVATMPHGEIVSQVDKDLRKMLIRSDAESPHTVNVTVWPRAIPQFNVGHTDLIQEAKDDLASQGWQGLHLGGNYVAGVALGKCMEAGYKQAAELASHVKSLAT	11
F386V: ApPPO1 (SEQ ID NO: 1) variant (protein, Synthetic (Protoporphyrinogen IX oxidase (ApPPO1) of Auxenochlorella protothecoides)) MPFTHLKPLNRLLGSPRARHPHVAPQAVSVTNTSTTRPGGRSSAPGIPGDAEYDVVIVGAGISGLTTAQALAKQYSDAVPRLLVTEARDCVGGNIITRRDGGYQWEEGPNSFQPSDAVLRAAVDAGVADRLVLGDPKAPRYVYWGGRLRATPSGPDVLTFDLLSLWGKLRAGLGAAGFKAPLPEREESVKEFVTRNLGEEVFQRLIEPFCSGVYAGDPAKLSMKAAFGKVYDLEKGGGSIVGGVLALMKARKQKPPEPRPADLPPKPKGQTVGSFDKGLVTLPSAIAEELGDRVVTGWKLESIDRSGDRFQLTYDTPQGRKKVSARSVALTVPAYTAASLLESRFPKLGKALSSIYYPPVASVALSYPETAILPERLGSDGHLAGVGQLHPRTQGVTTLGTIYASSLFPGRVPEGKVLLLSYFGGATNTRVATMPHGEIVSQVDKDLRKMLIRSDAESPHTVNVTVWPRAIPQFNVGHTDLIQEAKDDLASQGWQGLHLGGNYVAGVALGKCMEAGYKQAAELASHVKSLAT	86
A215C: ApPPO1 (SEQ ID NO: 1) variant (protein, Synthetic (Protoporphyrinogen IX oxidase (ApPPO1) of Auxenochlorella protothecoides)) MPFTHLKPLNRLLGSPRARHPHVAPQAVSVTNTSTTRPGGRSSAPGIPGDAEYDVVIVGAGISGLTTAQALAKQYSDAVPRLLVTEARDCVGGNIITRRDGGYQWEEGPNSFQPSDAVLRAAVDAGVADRLVLGDPKAPRYVYWGGRLRATPSGPDVLTFDLLSLWGKLRAGLGAAGFKAPLPEREESVKEFVTRNLGEEVFQRLIEPFCSGVYCGDPAKLSMKAAFGKVYDLEKGGGSIVGGVLALMKARKQKPPEPRPADLPPKPKGQTVGSFDKGLVTLPSAIAEELGDRVVTGWKLESIDRSGDRFQLTYDTPQGRKKVSARSVALTVPAYTAASLLESRFPKLGKALSSIYYPPVASVALSYPETAILPERLGSDGHLAGFGQLHPRTQGVTTLGTIYASSLFPGRVPEGKVLLLSYFGGATNTRVATMPHGEIVSQVDKDLRKMLIRSDAESPHTVNVTVWPRAIPQFNVGHTDLIQEAKDDLASQGWQGLHLGGNYVAGVALGKCMEAGYKQAAELASHVKSLAT	89
